In patent US20150106963A1:

What follows are substances tested against porcine cytochrome P450 17A1 (CYP17A1), wild type (pig (Sus scrofa)) (UniProt P19100) (assay: cell-based or functional assay). Details: scale: ratio.
UniProt P19100, sequence (P19100 whole entry H407L, form in doubt): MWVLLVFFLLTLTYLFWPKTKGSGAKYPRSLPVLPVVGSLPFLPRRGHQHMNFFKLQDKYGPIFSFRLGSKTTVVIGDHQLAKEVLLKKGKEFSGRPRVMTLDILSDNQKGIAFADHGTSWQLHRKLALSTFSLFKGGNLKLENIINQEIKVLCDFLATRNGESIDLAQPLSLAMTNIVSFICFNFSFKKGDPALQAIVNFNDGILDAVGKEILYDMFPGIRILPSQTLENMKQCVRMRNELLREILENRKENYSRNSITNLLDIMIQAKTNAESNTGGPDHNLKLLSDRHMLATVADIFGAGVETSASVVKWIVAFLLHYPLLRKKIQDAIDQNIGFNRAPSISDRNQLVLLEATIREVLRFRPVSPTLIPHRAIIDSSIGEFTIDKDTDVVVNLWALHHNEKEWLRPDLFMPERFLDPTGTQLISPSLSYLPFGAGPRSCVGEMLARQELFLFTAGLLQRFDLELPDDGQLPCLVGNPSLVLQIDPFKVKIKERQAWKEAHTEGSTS

Overall conversion (ratio of activity with b5/activity without b5), pregnenolone metabolism in transfected HEK-293 cells | Substance
0.865 | porcine cytochrome b5 type A mutant CYB5A-G57R (from UniProt P00172 2-134)
1.4 | porcine cytochrome b5 type A mutant CYB5A-QM R52M/G57R/N62S/T70S (from UniProt P00172 2-134)
0.765 | porcine cytochrome b5 type A mutant CYB5A-R52M (from UniProt P00172 2-134)
0.957 | porcine cytochrome b5 type A double mutant CYB5A-R52M+N62S (from UniProt P00172 2-134)
2.16 | porcine cytochrome b5 type A mutant CYB5A-N62S (from UniProt P00172 2-134)
1.2 | porcine cytochrome b5 type A mutant CYB5A-L28V (from UniProt P00172 2-134)
1.09 | porcine cytochrome b5 type A mutant CYB5A-T70S (from UniProt P00172 2-134)
1.36 | porcine cytochrome b5 type A mutant CYB5A-N21K (from UniProt P00172 2-134)
1.05 | porcine cytochrome b5 type A double mutant CYB5A-N21K+L28V (from UniProt P00172 2-134)
